{"source": "paper doi:10.1101/2020.01.02.893016", "about": "(bioRxiv, 2020)", "binders": {"B1": {"name": "ROOTY (RTY) protein, D315N mutant (TG8B allele) (enzyme, Arabidopsis thaliana, UniProt Q9SIV0 1-462, looked up)", "chain": "MSEEQPHANLAVPAFKTEKEPITQTRNGQSSVWRFGGSDKAAKASTVTLRGVIYMLFDNCGKDVNKTILPLGHGDPSVYPCFRTCIEAEDAVVDVLRSGKGNSYGPGAGILPARRAVADYMNRDLPHKLTPEDIFLTAGCNQGIEIVFESLARPNANILLPRPGFPHYDARAAYSGLEVRKFDLLPEKEWEIDLEGIEAIADENTVAMVVINPNNPCGNVYSHDHLKKVAETARKLGIMVISDEVYDRTIFGDNPFVSMGKFASIVPVLTLAGISKGWVVPGWKIGWIALNDPEGVFETTKVLQSIKQNLDVTPNPATIIQAALPAILEKADKNFFAKKNKILKHNVDLVCDRLKDIPCVVCPKKPESCTYLLTKLELSLMDNIKDDIDFCVKLAREENLVFLPGDALGLKNWMRITIGVEAHMLEDALERLKGFCTRHAKKTETETESLQALKLSDNNLEM"}}, "biological_target": "T1, ROOTY (RTY) protein, wild type, C-S lyase (Arabidopsis thaliana, UniProt Q9SIV0 1-462)", "T1 sequence (looked up)": "B1 chain with N315D", "assay": "two-hybrid", "note": "Changes are numbered by the printed parent chain. In names and notes the source's numbering stands.", "data": [{"binder": "B1", "values": [{"measurement": "beta-galactosidase activity relative to WT-WT", "value": "~80", "unit": "%"}]}]}
